Assay results taken from patent US20190248902A1 (published 2019).
Residue numbers refer to the chain shown, from its start.

T1: human ASGR-1 (wild type) (human, UniProt P07306 1-291)
T1 construct: also called wt ASGR1; huASGR-1
T1 sequence: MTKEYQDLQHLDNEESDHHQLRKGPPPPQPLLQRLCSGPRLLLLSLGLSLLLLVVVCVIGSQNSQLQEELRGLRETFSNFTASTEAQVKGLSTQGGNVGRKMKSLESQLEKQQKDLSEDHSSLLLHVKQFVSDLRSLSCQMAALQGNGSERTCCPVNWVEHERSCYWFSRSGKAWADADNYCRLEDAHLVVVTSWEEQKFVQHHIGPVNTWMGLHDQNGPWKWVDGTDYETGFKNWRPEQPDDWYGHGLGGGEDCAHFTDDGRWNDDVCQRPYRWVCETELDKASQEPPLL

T2: human ASGR-1 mutant construct H203 (human, UniProt P07306 1-291)
T2 construct: Arg/Glu scanning: non-arginine residues were changed to arginine; Transiently expressed on CHO-S cells
T2 sequence: T1 sequence with H203R

T3: human ASGR-1 (human, UniProt P07306 1-291)
T3 construct: Stably expressed on CHO-S cells (CHO-S:huASGR-1); The method text says human or mouse ASGR-1 cells were used; also called huASGR-1; hASGR-1
T3 sequence: T1 sequence

B1: 6G6 (antibody, V domains shown)
VH: QVQLVQSGAEVRKPGASVKVSCKASGYTFTNYDINWVRQATGQGPEWMGWMHPNSGNTGYAKKFQGRVTMTRNTSISAAYMVLSSLRSEDTAVYYCALSSGWYYFDYWGQGTLVTVSS
VL: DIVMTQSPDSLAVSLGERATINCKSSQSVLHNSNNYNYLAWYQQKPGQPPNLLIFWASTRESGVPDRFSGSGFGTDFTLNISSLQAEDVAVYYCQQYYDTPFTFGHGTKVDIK
notes: mAb
B2: 29E2 (antibody, V domains shown)
VH: QVQLVESGGGVVQPGRSLRLSCAASGFTFSNCVMHWVRQAPGKGLEWVAVIWYDGSNKYYADSVKGRITISRDNSKNTLYLQMNSLRAEDTAVYYCAREEYSSGWYDYGMDVWGQGTTVTVSS
VL: DIQMTQSPSSLSASVGDRVTITCRASQAIRNDLGWYQQRPGKAPKRLIYAASSLQSGVPSRFSGSGSGTEFILTISSLQPEDFATYYCLQHYNYPRSFGQGTKLEIK
notes: mAb
B3: 45B4 (antibody, V domains shown)
VH: B2 VH with N31D, I68F, E100R, W105L
VL: B2 VL with I21F, A28G, N31D, R39K, I72T, N93S, S97T, L104V
notes: mAb
B4: 10G6 (antibody, V domains shown)
VH: QVQLVQSGAEVKKPGASVKVSCKASGYTFTAYHMHWVRQAPGQGLEWMGWINPNNNGTNYAQKFQGRVTMTRDTSISTAYMELSRLRSDDTAVYYCGRDVTSSFDYWGQGTLVTVSS
VL: DIQMTQSPSSVSASVGDRVTITCRASQGISKWLAWYQQKPGKAPKILIYAAYSLQSGVPARFSGSGSGTDFTLTIRSLQPEDFATYYCQQANSFPFTFGPGTKVDIK
notes: mAb
B5: 53F7 (antibody, V domains shown)
VH: B4 VH with A31G, S84N, R87T, G97A, V100G
VL: B4 VL with T5S, K31R, K45N, I46L, Y52S, A60S, R76S, T85I
notes: mAb
B6: 4A2 (antibody, V domains shown)
VH: B1 VH with A9T, R12K, P45L, K62Q, M70L, A78T, V82E, L98S
VL: DIVMTQSPDSLAVSLGERATINCKSSQSILHSSNNNNYLAWFQQKPGQPPKLLLYWASTRESGVPDRFSGSGSGTDFTLTISSLQPEDVAVYYCQQYYNTPVTFGPGTKVGIK
B7: 218G4 (antibody, V domains shown)
VH: QVQLVESGGGVVQPGRSLRLSCAASGFTFSSYGLHWVRQAPGKGLEWVAVIWYDGSNKYYADSVKGRFTISRDNSKNTLYLQMNSLRVEDTAVYYCANWYYYYYGMDVWGQGTTVTVSS
VL: QSVLTQPPSVSAAPGQKVTISCSGSSSNIGNNYVSWYQQLPGTAPKLLLYDSNKRPSGIPARFSGSKSGTSATLGITGLQTGDEADYYCGTWDSSLNTVVFGGGTKLTVL
B8: 202A3 (antibody, V domains shown)
VH: QVQLEQSGAEVKKPGASVKVSCKASGYTFTSYDINWVRQATGQGLEWLGWMNPKRGNTGYAQKFQGRVTMTRNTSISTAHMELSSLRSEDTAVYYCARGRYSREDYYYYYDMDVWGQGTTVTVSS
VL: DIQMSQSPSSLSASVGDRVTITCRASQGIRNDLGWYQQKPGKAPKRLICAASRLQSGVPSRFSGSGSGTEFTLTISSLQPEDFAIYYCLQHHDYPFTFGPGTKVDIK
B9: 4H6 (antibody, V domains shown)
VH: B4 VH with A31D, H33Y, M34L, N52H, N55S, N56G, E82G, R85S, G97A, V100G
VL: B4 VL with K31R, I46L, A50G, Y52S, A60S, R76S, T85I
notes: tested as antibody purified from hybridoma supernatant or made recombinantly
B10: 4B1 (antibody, V domains shown)
VH: QVQLQESGPGLVKPSETLSLTCSVSGDSISSYSWSWIRQPAGKGLEWIGRIYTSGSTNYIPSLKSRITMSVDTSKKQFSLKLSSVTAADTAVYYCARDLKSSGCLFFDYWGQGTLVTVSS
VL: DIQMTQSPSSLSASVGDRVTITCRASHTIRTYLNWYQQKPGKAPKLLIYAASSLQSGVPSRINGSGSGTDFTLTITNLQPEDFATYYCQQSYNISFTFGPGTKVDIK

target: T1, human ASGR-1 (wild type); assay: FACS, transfected CHO-S cells, mAb 5 ug/ml
Procedure: (§1) The ability of human ASGR-1-specific, ligand competing antibodies to bind to the mutant hASGR-1 proteins was assessed by FACS as described above.
(§2) Antibodies were tested for binding to the individual mutant and wild type ASGR-1 constructs using normalized antibody concentrations (5 ug/ml). CHO—S cells transiently expressing the appropriate mutated or non-mutated antigen of interest were mixed with antibody sample or controls, incubated for 1 hour at 4° C., and then washed twice. Cells with bound antibody were then incubated with Alexa Fluor® 647 IgG Fc fragment-specific detection antibody and 7-AAD viability stain for 15 minutes at 4° C., washed once and resuspended in FACS buffer. Samples were analyzed using a BD Accuri™ Flow Cytometer and an Intellicyt HyperCyt Autosampler. As a negative control, supernatants and controls were also screened against CHO—S cells transfected with empty parental vector (referred to as mock). […] Because mutant hASGR-1 expression levels varied relative to each other, sample binding data for each construct was normalized for expression by dividing the binding data from an antibody not affected by the mutations (e.g., 65C12) by the binding values of each test antibody on a given mutant construct. Also, because the antibody binding affinities varied amongst the samples, the expression corrected data (above) was further normalized by comparing test antibody binding on each mutant construct to wild type hASGR-1. Identification of specific mutations that affected test antibody binding was performed by an interquartile range (IQR) analysis to determine statistical outliers. A mutation was identified as a “hit” if the calculated values were >3× the IQR (above the 3rd quartile/upper fence) for a given mutant construct. Although IQR analysis was used here to determine signifance and identify hits, one skilled in the art will recognize that a number of methods could be employed in order to normalize the data (eg. using epitope-tagged constructs or other ASGR-1-binding antibodies directed against non-CBD epitopes).

Row | FACS Binding Geomean | Binder
1 | 47600 | B1
2 | 25800 | B2
3 | 30400 | B3
4 | 43100 | B4
5 | 43500 | B5

target: T2, human ASGR-1 mutant construct H203; assay: FACS, transfected CHO-S cells, mAb 5 ug/ml
Procedure: as §1, §2

Row | FACS Binding Geomean | Binder
6 | 20500 | B1
7 | 15100 | B2
8 | 14000 | B3
9 | 18200 | B4
10 | 18100 | B5

target: T1, human ASGR-1 (wild type); assay: FACS ratio: 65C12 geomean / this mAb geomean
Procedure: (§3) Mutant hASGR-1 variants were constructed such that non-arginine residues were changed to arginine and where wild type arginine residues were mutated to glutamic acid. Each mutant hASGR-1 sequence was then cloned into a mammalian expression vector and used to transiently transfect CHOs cells. The ability of human ASGR-1-specific, ligand competing antibodies to bind to the mutant hASGR-1 proteins was assessed by FACS as described above.
(§4) Antibodies were tested for binding to the individual mutant and wild type ASGR-1 constructs using normalized antibody concentrations (5 ug/ml). CHO—S cells transiently expressing the appropriate mutated or non-mutated antigen of interest were mixed with antibody sample or controls, incubated for 1 hour at 4° C., and then washed twice. Cells with bound antibody were then incubated with Alexa Fluor® 647 IgG Fc fragment-specific detection antibody and 7-AAD viability stain for 15 minutes at 4° C., washed once and resuspended in FACS buffer. Samples were analyzed using a BD Accuri™ Flow Cytometer and an Intellicyt HyperCyt Autosampler. As a negative control, supernatants and controls were also screened against CHO—S cells transfected with empty parental vector (referred to as mock). […] Because mutant hASGR-1 expression levels varied relative to each other, sample binding data for each construct was normalized for expression by dividing the binding data from an antibody not affected by the mutations (e.g., 65C12) by the binding values of each test antibody on a given mutant construct. Also, because the antibody binding affinities varied amongst the samples, the expression corrected data (above) was further normalized by comparing test antibody binding on each mutant construct to wild type hASGR-1. Identification of specific mutations that affected test antibody binding was performed by an interquartile range (IQR) analysis to determine statistical outliers. A mutation was identified as a “hit” if the calculated values were >3× the IQR (above the 3rd quartile/upper fence) for a given mutant construct.

Row | Expression Normalization to mAb 65C12 | Binder
11 | 1.18 | B1
12 | 2.18 | B2
13 | 1.85 | B3
14 | 1.3 | B4
15 | 1.29 | B5

target: T2, human ASGR-1 mutant construct H203; assay: FACS ratio: 65C12 geomean / this mAb geomean
Procedure: as §3, §4

Row | Expression Normalization to mAb 65C12 | Binder
16 | 1.26 | B1
17 | 1.71 | B2
18 | 1.84 | B3
19 | 1.41 | B4
20 | 1.42 | B5

target: T2, human ASGR-1 mutant construct H203; assay: FACS ratio: H203 normalized value / wt normalized value
Procedure: as §1, §2

Row | Normalization to wt ASGR1 Binding | Binder
21 | 1.07 | B1
22 | 0.786 | B2
23 | 0.995 | B3
24 | 1.09 | B4
25 | 1.1 | B5

target: T3, human ASGR-1; assay: FACS ligand blocking on CHO-S ASGR-1 cells; competitor biotinylated asialofetuin
Procedure: (§5) All ASGR-1 antibodies that bound either human or mouse ASGR-1 stable CHO—S cells were then tested for ligand blocking using both a protein ligand and a synthetic sugar ligand. The method in brief is as follows: first, 20 ul of either CHO-Shuman or mouse ASGR-1 cells were added to wells of a 384 well plate (30 k cells/well) followed by spin and discarding the supernatant. Second, 10 ul of the antibodies (either purified from hybridoma supernatants or made recombinantly) were added in duplicate to the cells in a dilution series (200 nM top concentration, 1:2 serial dilution, 11 point curve) and were incubated for 30 min at 4 C. […] After 30 min incubation at 4C, the plate was spun and washed twice with FACS buffer+1 mM CaCl2 followed by the detection streptavidin-AF647 at 1:1000 dilution. After 30 min at 4C, the cells were spun and washed once and then 60 ul PI added at 1:1000 dilution and the plates delivered to a core flow cytometry facility. The plates were read and processed similarly to the cell binding method except the signal now represents an inhibition curve and typically decreases a function of increasing antibody concentration. IC50 nM potency and % Inhibition were reported. […] Differences in the ability of antibodies to block these two ligands could occur as a result of differences in, for example, avidity stemming from differences in the number and/or orientation of the ASGR binding terminal sugar residues of each ligand, steric hindrance between antibody and each ligand, and/or changes in the conformation of ASGR induced by antibody binding that selectively alters the binding of each ligand.

Row | % Inhibition | IC50 | Binder
26 | 99% | 11 nM | B6
27 | 99% | 28 nM | B7
28 | 98% | 16 nM | B8
29 | 85% | 12 nM | B9
30 | 75% | 64 nM | B10

target: T3, human ASGR-1; assay: FACS ligand blocking on CHO-S ASGR-1 cells; labelled ligand biotin-GalNAc-PAA (synthetic sugar)
Procedure: as §5

Row | % Inhibition | IC50 | Binder
31 | 70% | 54 nM | B6
32 | 99% | 71 nM | B7
33 | 96% | 32 nM | B8
34 | 20% | 8.1 nM | B9
35 | 36% | 42 nM | B10
